Measurements taken from patent US11667697 (VANDERBILT UNIVERSITY, dated 2023).

Experiments:
VACV L1 protein [1] = target: T1, VACV L1 protein (vaccinia virus, UniProt P07612 1-185); assay: cell-based or functional assay
T1 sequence: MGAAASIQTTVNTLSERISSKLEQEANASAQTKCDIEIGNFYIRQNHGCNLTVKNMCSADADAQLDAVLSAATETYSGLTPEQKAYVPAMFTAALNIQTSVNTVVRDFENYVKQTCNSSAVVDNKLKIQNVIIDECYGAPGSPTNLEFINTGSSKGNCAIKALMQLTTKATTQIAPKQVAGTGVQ

VACV L1 protein [2] = target: T1, VACV L1 protein; assay: lysate ELISA
VACV L1 protein [3] = target: T1, VACV L1 protein; assay: purified antigen ELISA
VACV D8 protein = target: T2, VACV D8 protein (vaccinia virus, UniProt P04195 1-261); assay: antigen ELISA/array/BLI
T2 sequence: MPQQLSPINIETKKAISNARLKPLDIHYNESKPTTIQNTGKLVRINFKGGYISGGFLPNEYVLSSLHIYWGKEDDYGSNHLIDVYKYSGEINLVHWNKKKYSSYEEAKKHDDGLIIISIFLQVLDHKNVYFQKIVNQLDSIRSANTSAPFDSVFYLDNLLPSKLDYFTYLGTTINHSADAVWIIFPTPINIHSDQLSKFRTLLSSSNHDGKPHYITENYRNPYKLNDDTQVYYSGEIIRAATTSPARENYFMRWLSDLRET

VACV B5 protein [4] = target: T3, VACV B5 protein (vaccinia virus, UniProt Q01227 20-275); assay: cell-based or functional assay
CPXV ortholog of B5 [5] = target: CPXV ortholog of B5 (cowpox virus); assay: cell-based or functional assay
VACV B5 protein [6] = target: T3, VACV B5 protein; assay: lysate ELISA
MPXV ortholog of B5 = MPXV ortholog of B5 (monkeypox virus); assay: lysate ELISA
CPXV ortholog of B5 [7] = target: CPXV ortholog of B5 (cowpox virus); assay: lysate ELISA
VACV B5 protein [8] = target: T3, VACV B5 protein; assay: purified antigen ELISA
VARV ortholog of B5 = VARV ortholog of B5 (variola virus); assay: purified antigen ELISA

B1: MPXV-87 (antibody, V domains shown)
V domain 1: QVQLVQSGAEVKKPGASVKVSCKASGYTFTSHGIIWVRQAPGQGLEWMGWISVYNDNTNSAQKFQDRVTMTTATSTSTAYMELRSLRSDDTAVYYCARSSSGPRYYYYGMDVWGQGTTSP
V domain 2: QSVVTQPPSVSGAPGQRVTISCTGSSSNIGAGYAVHWYYQLPGIAPKLLIFGNNNRPSGVPDRFSGSKSGTSASLAITGLQAEDEADYYCQSYDSSLSGWVFGGGTQVTVL
notes: human IgG1, anti-L1
Q: How did the “PRNT Emax, VACV MV” value (VACV L1 protein [1]) turn out when B1 was run?
A: 61%

Q: What about the “PRNT Emax, VACV MV+C'” value (VACV L1 protein [1]) of the same binder?
A: 72%

Q: What about the “PRNT IC50, VACV MV” value (VACV L1 protein [1]) of the same binder?
A: 5 µg/mL

Q: And the “PRNT IC50, VACV MV+C'” value (VACV L1 protein [1])?
A: 0.8 µg/mL

Q: And the EC50 (VACV L1 protein [2])?
A: 0.01 µg/mL

Q: What about the EC50 (VACV L1 protein [3]) of the same binder?
A: 0.3 µg/mL

B2: VACV-77 (antibody, V domains shown)
VH: QVQLQESGPGLVKPSETLSLTCTVSGGSMSSYFWSWIRQPPGKGLEWIGYISYSGGTNYNPSLKSRVTISVDTSKNQFSLKLTSVTAADTAVYYCAREDRGSPDYWGQGTLVTVSS
VL: QSVLTQPPSVSAAPGRKVTISCSGSSSNIGNNYVSWYQQLPGTAPKLLIYDNYKRPSGIPDRFSGSKSGTSATLGITGLQTGDEADYYCGTWDLSLSAGVFGGGTKLTVL
Q: Does B2 bind (VACV D8 protein)?
A: binds

B3: MPXV-92 (antibody)
chain 1: QVQLVESGPGLVKPSGTLSLTCAVSGGSISSSNWWSWVRQPPGKGLEWIGEIYHSGSTNYTPSLKSRVTISLDKSKNQFSLKLSSVTAADTAMYYCARNFYPGYLQYWGQGTLVTVSS
chain 2: QSALTQPASVSGSPGQSITISCTGTISDVGGYNYVSWYQQHPGKAPKLMIYDVNKRPSGVSNRFSGSKSGNT
Q: How did the “PRNT Emax, VACV EV+C'” value (VACV B5 protein [4]) turn out when B3 was run?
A: 86%

Q: And the “PRNT IC50, VACV EV+C'” value (VACV B5 protein [4])?
A: 0.08 µg/mL

Q: And the “PRNT IC50, CPXV EV+C'” value (CPXV ortholog of B5 [5])?
A: 0.5 µg/mL

Q: What about the EC50 (VACV B5 protein [6]) of the same binder?
A: 0.064 µg/mL

Q: What about the EC50 (MPXV ortholog of B5) of the same binder?
A: 0.046 µg/mL

Q: What about the EC50 (CPXV ortholog of B5 [7]) of the same binder?
A: 0.014 µg/mL

Q: What about the EC50 (VACV B5 protein [8]) of the same binder?
A: 0.7 µg/mL

Q: What about the EC50 (VARV ortholog of B5) of the same binder?
A: 1.2 µg/mL
